Patent US20250340654A1

Target: Canine IL-31RA ECD-10His (canine)
Test: ELISA, IL-31RA coated at 1 ug/mL, biotinylated IL-31 titrated, HRP-streptavidin

Canine IL-31RA ECD-10His (canine), sequence (chain, as listed by the source limits assumed): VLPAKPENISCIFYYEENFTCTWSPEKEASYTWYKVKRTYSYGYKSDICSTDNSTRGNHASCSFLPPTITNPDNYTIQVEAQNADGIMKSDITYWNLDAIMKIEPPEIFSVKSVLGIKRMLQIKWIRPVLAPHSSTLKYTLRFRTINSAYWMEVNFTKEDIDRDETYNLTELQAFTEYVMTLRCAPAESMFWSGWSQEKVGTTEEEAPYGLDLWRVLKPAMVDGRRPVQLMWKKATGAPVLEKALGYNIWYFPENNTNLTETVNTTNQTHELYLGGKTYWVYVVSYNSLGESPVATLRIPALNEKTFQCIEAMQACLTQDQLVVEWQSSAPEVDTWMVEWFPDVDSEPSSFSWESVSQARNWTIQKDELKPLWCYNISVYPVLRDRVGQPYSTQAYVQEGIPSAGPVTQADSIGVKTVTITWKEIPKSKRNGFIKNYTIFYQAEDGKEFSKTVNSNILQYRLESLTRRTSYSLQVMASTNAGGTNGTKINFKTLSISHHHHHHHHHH

Substance biotinylated canine IL-31 (ligand) has an EC50 of 0.55 ng/mL.
